From US6423500 (SCHERING, dated 2002) come the findings set out here.

Experiment [1] deals with T1, mouse IL-10 receptor (mouse, UniProt Q61727 17-575).
T1 construct: Expressed on transfected COS7 cells; the native receptor on mouse cell lines (MC/9, J774, WEHI 265.1) is written as this same molecule; also called mIL-10R; mouse IL-10 receptor component
T1 sequence: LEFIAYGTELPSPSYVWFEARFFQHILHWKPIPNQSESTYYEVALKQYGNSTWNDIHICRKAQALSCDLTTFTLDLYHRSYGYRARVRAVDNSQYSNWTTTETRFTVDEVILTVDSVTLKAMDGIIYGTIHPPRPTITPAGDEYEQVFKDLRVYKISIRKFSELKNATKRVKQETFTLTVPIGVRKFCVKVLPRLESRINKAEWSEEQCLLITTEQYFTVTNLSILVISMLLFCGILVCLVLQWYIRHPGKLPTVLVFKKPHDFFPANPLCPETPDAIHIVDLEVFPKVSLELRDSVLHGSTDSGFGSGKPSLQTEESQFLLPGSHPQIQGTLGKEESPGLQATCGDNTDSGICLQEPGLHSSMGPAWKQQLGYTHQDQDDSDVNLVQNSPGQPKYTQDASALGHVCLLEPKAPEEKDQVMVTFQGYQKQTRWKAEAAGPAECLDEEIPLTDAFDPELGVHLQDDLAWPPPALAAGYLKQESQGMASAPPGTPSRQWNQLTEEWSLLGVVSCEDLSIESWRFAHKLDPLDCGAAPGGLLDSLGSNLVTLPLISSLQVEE
Put plainly: FACS competition against FLAG-mIL-10 on MC/9 and J774 cells.

The target of experiment [2] is T2, human IL-10 receptor (human, UniProt Q13651 22-578).
T2 construct: Expressed on transfected COS7 cells and Ba/F3 (Ba8.1) cells; The native IL-10 receptor on human cell lines (JY, TF-1, BJAB, Ramos, BH5) is written as this same molecule; also called hIL-10R; human IL-10 receptor component
T2 sequence: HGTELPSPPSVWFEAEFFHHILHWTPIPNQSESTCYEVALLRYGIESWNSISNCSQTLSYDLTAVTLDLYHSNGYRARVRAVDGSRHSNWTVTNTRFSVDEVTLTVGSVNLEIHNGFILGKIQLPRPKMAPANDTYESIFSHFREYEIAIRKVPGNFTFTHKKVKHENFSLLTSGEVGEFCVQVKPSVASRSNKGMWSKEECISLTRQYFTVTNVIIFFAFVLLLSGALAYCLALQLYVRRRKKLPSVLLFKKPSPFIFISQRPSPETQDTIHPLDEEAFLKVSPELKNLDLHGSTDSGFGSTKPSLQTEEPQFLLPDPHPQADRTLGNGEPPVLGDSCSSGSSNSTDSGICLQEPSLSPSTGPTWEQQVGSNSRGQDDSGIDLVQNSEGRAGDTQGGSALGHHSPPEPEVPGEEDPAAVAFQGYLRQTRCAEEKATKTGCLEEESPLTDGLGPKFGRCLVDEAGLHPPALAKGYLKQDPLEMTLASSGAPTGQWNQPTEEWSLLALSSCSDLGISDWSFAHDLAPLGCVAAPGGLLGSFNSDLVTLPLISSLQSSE
As to the kind of experiment: Scatchard analysis of 125I-hIL-10 binding to Ba8.1 cells (Ba/F3 expressing hIL-10R), experiment shown.
From the text: (§1) Values for Kd and receptor number were obtained by Scatchard analysis (23, 33, 34).

For experiment [3], the target named is T2, human IL-10 receptor. As to the kind of experiment: Scatchard analysis of 125I-hIL-10 binding to Ba8.1 cells, repeat experiments.
From the text: as §1
Experiment [4] deals with IL-10 receptors on JY and MC/9 cells. As to the kind of experiment: saturation binding of iodinated hIL-10 to JY and MC/9 cells, several independent experiments.
Experiment [5] deals with T2, human IL-10 receptor. As to the kind of experiment: saturation binding of iodinated hIL-10 to JY cells, Scatchard analysis.
Method: (§2) Scatchard analysis was performed on the data points obtained using the EBDA Program (Elsevier-Biosoft, Cambridge, U.K.). Antibody inhibition was performed under the above binding conditions but with the addition of a 100-fold molar excess of each of the indicated monoclonal antibodies. Cytokine specificity was determined under similar conditions but with the addition of 500-fold molar excess of the cytokines indicated.
In experiment [6] the target is T2, human IL-10 receptor. As to the kind of experiment: saturation binding of iodinated hIL-10 to JY cells, Scatchard analysis (EBDA).
Method: as §2
Experiment [7] addresses T1, mouse IL-10 receptor. Put plainly: saturation binding of iodinated hIL-10 to MC/9 cells, Scatchard analysis (EBDA).
Method: as §2
Experiment [8] addresses T2, human IL-10 receptor. Put plainly: saturation binding of iodinated hIL-10 to COS7 cells transfected with human clone SW8.1, Scatchard plot.
Method: (§3) Binding assays were performed. […] For FIGS. 16 and 17, the highest concentration was 1 nM. Background was determined by performing binding at 500-fold molar excess. Points represent averages of duplicates.
The target of experiment [9] is T1, mouse IL-10 receptor. Put plainly: saturation binding of iodinated hIL-10 to COS7 cells transfected with mouse clone m3.14, Scatchard plot.
Method: as §3

B1: mouse IL-10 (ligand, UniProt P18893 19-178, looked up)
chain: SRGQYSREDNNCTHFPVGQSHMLLELRTAFSQVKTFFQTKDQLDNILLTDSLMQDFKGYLGCQALSEMIQFYLVEVMPQAEKHGPEIKEHLNSLGEKLKTLRMRLRRCHRFLPCENKSKAVEQVKSDFNKLQDQGVYKAMNEFDIFINCIEAYMMIKMKS
notes: mature; also called mIL-10; murine IL-10
For B1, the binding result in [1] is “binds”.

B2: human IL-10 (ligand, UniProt P22301 19-178, looked up)
chain: SPGQGTQSENSCTHFPGNLPNMLRDLRDAFSRVKTFFQMKDQLDNLLLKESLLEDFKGYLGCQALSEMIQFYLEEVMPQAENQDPDIKAHVNSLGENLKTLRLRLRRCHRFLPCENKSKAVEQVKNAFNKLQEKGIYKAMSEFDIFINYIEAYMTMKIRN
modifications: radioiodinated (125I, lactoperoxidase method) where used as labeled ligand; positions not given
notes: mature; Labeled and unlabeled hIL-10 are treated as one molecule; also called hIL-10; human interleukin-10
In the case of B2, the dissociation constant Kd – broadly, the constant that tells how readily two partners part at equilibrium – is about 0.25 nM in experiment [2]; 0.2 to 0.25 nM in [3]; 0.05 to 0.17 nM in experiment [4]; about 0.15 nM in experiment [5]; 0.14 nM in [6]; 0.049 nM in experiment [7]. Moreover, the Kd in experiment [8] turned out to be 0.12 nM; in [9], 0.083 nM.
